Target: the molecule itself
Experiment: SEC; native size exclusion chromatography, Sephacryl S-100-HR, buffer B (50 mM Tris pH 8, 0.1 M NaCl, 0.5 M KCl, 20% glycerol, 20 mM Na-cholate, 0.1 mM TCEP) as eluent; monomer separated from higher molecular weight forms

B1: His-FeCh, recombinant type II ferrochelatase of Synechocystis sp. PCC 6803 with N-terminal His6-tag (enzyme, UniProt P54225 1-387, looked up)
chain: MGRVGVLLLNLGGPEKLEDVRPFLFNLFADPEIIRLPFPWLQKPLAWLISTLRAKKSQANYAEIGGGSPLLQITEAQASALTTRLERLGQDAKVYIGMRYWHPFTEEAVEKIKGDRLQRLVILPLYPHFSISTSGSSFRVLEEMWHNDPSLRQLDYSLIPSWYDHPGYLQAMADLIAQELKKFPNPDQAHIFFSAHGVPQSYVDEAGDPYQAEIEACTRLIMRTLDRPNQYTLAYQSRVGPVEWLKPYTEEALQKLGAEGIDDLLVVPISFVSEHIETLQEIDIEYREIAEEAGIDNFQRVPALNTHPVFIDALAQMVMDSLNDPPCTFETVPHPKKNMKMYPQERWEWGLTTAAEVWNGRLAMLGFIALLVELISGQGPLHFVGLL
notes: Ferrochelatase (hemH) of Synechocystis sp; PCC 6803, GenBank BAA10523.1, amplified from genomic DNA from the start codon to the stop codon; full length with the C-terminal CAB domain; tagged protein 47 kDa; also called full length His-FeCh; not shown: His6, N-terminal, kept
  binding result: binds

B2: FeCh, recombinant full-length ferrochelatase of Synechocystis sp. PCC 6803 after removal of the N-terminal His6-tag (enzyme, UniProt P54225 1-387, looked up)
chain: B1 chain
notes: Ferrochelatase (hemH) of Synechocystis sp; PCC 6803, GenBank BAA10523.1, full length with the C-terminal CAB domain; monomer 44 kDa; also called full-length FeCh; source: E. coli, His-FeCh after IMAC, His6-tag removed with thrombin, purified (HisGraviTrap, Sephacryl S-100-HR); not shown: His6, N-terminal, cleaved
  binding result: binds
